Values of other authors in PMC9785887.

How the values were obtained:
[1] = molecular target: Integrin αvβ6 (Homo sapiens) (UniProt P06756)
[2] = molecular target: Neuropilin-1 (Homo sapiens) (UniProt O14786)
Sequence of UniProt O14786 (O14786 22-856): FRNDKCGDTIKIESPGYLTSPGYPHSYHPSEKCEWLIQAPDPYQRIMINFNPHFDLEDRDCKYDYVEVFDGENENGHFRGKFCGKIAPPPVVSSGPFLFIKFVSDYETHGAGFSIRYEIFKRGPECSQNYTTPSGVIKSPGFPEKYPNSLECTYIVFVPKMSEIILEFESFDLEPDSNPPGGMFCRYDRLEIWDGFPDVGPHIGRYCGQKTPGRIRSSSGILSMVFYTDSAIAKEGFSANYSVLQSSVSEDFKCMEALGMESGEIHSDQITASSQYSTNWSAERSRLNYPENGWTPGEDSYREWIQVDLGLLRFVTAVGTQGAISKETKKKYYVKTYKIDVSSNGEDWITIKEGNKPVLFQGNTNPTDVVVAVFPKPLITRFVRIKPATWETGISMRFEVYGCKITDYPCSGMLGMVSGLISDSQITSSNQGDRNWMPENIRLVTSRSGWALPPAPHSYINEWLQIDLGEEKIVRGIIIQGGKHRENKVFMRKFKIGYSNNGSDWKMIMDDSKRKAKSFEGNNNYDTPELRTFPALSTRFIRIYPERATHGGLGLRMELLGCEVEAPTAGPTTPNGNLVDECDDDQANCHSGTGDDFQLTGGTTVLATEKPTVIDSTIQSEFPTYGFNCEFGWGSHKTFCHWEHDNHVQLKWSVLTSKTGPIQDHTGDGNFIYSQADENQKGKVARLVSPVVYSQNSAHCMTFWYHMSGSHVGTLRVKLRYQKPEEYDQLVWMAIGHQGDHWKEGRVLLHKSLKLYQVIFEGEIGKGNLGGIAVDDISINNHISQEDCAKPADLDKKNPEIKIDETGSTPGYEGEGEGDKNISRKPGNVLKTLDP

Sequence of Chromogranin A peptide CgA39-63 (P10645 57-81): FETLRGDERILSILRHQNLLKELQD
Sequence of UniProt P06756 (P06756 31-992, chain 1 of 2): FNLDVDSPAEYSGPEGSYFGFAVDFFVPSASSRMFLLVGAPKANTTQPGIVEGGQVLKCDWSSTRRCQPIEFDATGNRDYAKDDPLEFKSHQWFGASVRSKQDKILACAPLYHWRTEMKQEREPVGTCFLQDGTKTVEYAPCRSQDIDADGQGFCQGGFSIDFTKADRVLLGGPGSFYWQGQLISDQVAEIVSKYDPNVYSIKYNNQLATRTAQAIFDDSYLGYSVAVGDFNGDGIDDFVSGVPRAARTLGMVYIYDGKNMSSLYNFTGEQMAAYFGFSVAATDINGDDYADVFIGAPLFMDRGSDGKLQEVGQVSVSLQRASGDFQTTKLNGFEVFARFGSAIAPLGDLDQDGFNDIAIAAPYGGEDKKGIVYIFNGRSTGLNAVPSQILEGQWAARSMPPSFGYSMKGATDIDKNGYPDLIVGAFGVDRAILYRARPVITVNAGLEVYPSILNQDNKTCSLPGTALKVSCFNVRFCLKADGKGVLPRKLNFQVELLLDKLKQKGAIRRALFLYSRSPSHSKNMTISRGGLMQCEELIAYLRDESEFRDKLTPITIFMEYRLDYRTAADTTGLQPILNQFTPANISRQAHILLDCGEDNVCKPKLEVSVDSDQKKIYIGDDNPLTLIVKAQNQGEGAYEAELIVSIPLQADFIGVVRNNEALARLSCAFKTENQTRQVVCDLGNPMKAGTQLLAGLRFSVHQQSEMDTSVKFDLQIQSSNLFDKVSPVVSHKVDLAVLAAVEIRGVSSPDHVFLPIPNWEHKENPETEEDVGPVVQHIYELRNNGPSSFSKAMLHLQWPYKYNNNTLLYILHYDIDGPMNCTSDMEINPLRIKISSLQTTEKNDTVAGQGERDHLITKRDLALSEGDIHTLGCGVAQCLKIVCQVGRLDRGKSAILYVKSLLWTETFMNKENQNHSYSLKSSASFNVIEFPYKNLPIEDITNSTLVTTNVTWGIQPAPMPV
Sequence of UniProt P06756 (P18564 22-709, chain 2 of 2, further chain): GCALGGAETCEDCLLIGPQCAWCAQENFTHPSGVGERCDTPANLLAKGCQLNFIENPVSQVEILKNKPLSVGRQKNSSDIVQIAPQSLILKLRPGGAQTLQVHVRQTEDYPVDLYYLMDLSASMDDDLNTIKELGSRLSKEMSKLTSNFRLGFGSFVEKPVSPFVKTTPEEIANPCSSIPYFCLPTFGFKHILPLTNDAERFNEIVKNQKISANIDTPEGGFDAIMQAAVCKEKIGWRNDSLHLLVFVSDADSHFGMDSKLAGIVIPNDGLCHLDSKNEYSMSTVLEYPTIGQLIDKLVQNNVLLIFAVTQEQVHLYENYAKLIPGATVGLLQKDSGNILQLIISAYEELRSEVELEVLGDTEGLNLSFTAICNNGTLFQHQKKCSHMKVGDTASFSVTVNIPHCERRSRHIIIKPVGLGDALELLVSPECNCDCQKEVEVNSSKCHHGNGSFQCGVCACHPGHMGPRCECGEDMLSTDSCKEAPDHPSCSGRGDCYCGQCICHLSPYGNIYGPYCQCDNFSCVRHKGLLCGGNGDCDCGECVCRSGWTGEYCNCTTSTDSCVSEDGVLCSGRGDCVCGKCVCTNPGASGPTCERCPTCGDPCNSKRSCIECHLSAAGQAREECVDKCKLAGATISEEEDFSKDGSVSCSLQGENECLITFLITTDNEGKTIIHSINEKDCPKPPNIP

Substance | Ki [1] | Kd [2]
Chromogranin A peptide CgA39-63 | 15.5 nM | 
Chromogranin A 1-373 1-373 (from UniProt P10645) |  | 3.49 nM
